The values that follow come from patent US20060257938A1, “Method of screening for drugs that block ligand binding to a lipid binding protein” (priority 2005, published 2006).

Type in all cases: binding
Test [1] in a line: Probe fluorescence ratio response to linoleic acid relative to ADIFAB2. The settings on record: Table 4. The method, boiled down: (§1)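 Fluorescently labeled rat intestinal FABP variants were read at two emission wavelengths, near the unbound maximum (about 420 to 480 nm) and the FFA-bound maximum (about 495 to 580 nm). R = Fλ1/Fλ2 after subtracting probe-free intensity; ΔR = R+agent − R0, normalized to ADIFAB2 (rI-FABP-L72A).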

Test [2] in a line: Probe fluorescence ratio response to palmitic acid relative to ADIFAB2. The following applies: Table 4. In short, it runs like this:
as §1

Test [3] is described as follows: Probe fluorescence ratio response to arachidonic acid relative to ADIFAB2. The following applies: Table 4; Arachidonic acid. The method, boiled down: as §1
The nature of test [4]: Probe fluorescence ratio response to linolenic acid relative to ADIFAB2. The following applies: Table 4. The method, boiled down: as §1
Test [5] in a line: Probe fluorescence ratio response to oleic acid relative to ADIFAB2. The settings on record: Table 4. In short, it runs like this:
as §1

B1: L1P12F12: FABP probe, substitutions Y14L L72G Y117V vs SEQ ID NO: 2 (protein, listed as Rattus norvegicus)
chain: AFDGTWKVDRNENLEKFMEKMGINVVKRKLGAHDNLKLTITQEGNKFTVKESSNFRNIDVVFELGVDFAYSGADGTELTGTWTMEGNKLVGKFKRVDNGKELIAVREISGNELIQTVTYEGVEAKRIFKKE
modifications: PEPTIDE (1)...(131) wild-type rat intestinal fatty acid binding protein
Take B1: the “ΔR/DRAΔ2 LA” value in test [1] was determined as 0.5. In addition, the “ΔR/DRAΔ2 PA” value in test [2] worked out at 0.1. Also, in test [3], the “ΔR/DRAΔ2 AA” value is on record as 0.9. For the same molecule, the “ΔR/DRAΔ2 LNA” value in test [4] worked out at 0.5. For the same molecule, the “ΔR/DRAΔ2 OA” value in test [5] amounted to 0.3.

B2: L1P9G10: FABP probe, substitutions L38I L72G vs SEQ ID NO: 2 (protein, listed as Rattus norvegicus)
chain: AFDGTWKVDRNENYEKFMEKMGINVVKRKLGAHDNLKITITQEGNKFTVKESSNFRNIDVVFELGVDFAYSGADGTELTGTWTMEGNKLVGKFKRVDNGKELIAVREISGNELIQTYTYEGVEAKRIFKKE
modifications: PEPTIDE (1)...(131) wild-type rat intestinal fatty acid binding protein
Consider B2, for which the “ΔR/DRAΔ2 LA” value in test [1] was found to be 0.8. For the same molecule, the “ΔR/DRAΔ2 PA” value in test [2] is reported as 0.4. Besides, the “ΔR/DRAΔ2 AA” value in test [3] is 1.0. Moreover, in test [4], the “ΔR/DRAΔ2 LNA” value is 0.7. Moreover, in test [5], the “ΔR/DRAΔ2 OA” value is given as 0.9.

B3: L1P8H2: FABP probe, substitutions Y14M L38M L72W vs SEQ ID NO: 2 (protein, listed as Rattus norvegicus)
chain: AFDGTWKVDRNENMEKFMEKMGINVVKRKLGAHDNLKMTITQEGNKFTVKESSNFRNIDVVFELGVDFAYSWADGTELTGTWTMEGNKLVGKFKRVDNGKELIAVREISGNELIQTYTYEGVEAKRIFKKE
modifications: PEPTIDE (1)...(131) wild-type rat intestinal fatty acid binding protein
B3: the “ΔR/DRAΔ2 LA” value in test [1] is listed as −1.5. Also, in test [2], the “ΔR/DRAΔ2 PA” value is given as −0.6. Moreover, the “ΔR/DRAΔ2 AA” value in test [3] is −1.3. For the same molecule, the “ΔR/DRAΔ2 LNA” value in test [4] is given as −1.3. Further, the “ΔR/DRAΔ2 OA” value in test [5] is −1.7.

B4: L1P12G10: FABP probe, substitution Y14I vs SEQ ID NO: 2 (protein, listed as Rattus norvegicus)
chain: AFDGTWKVDRNENIEKFMEKMGINVVKRKLGAHDNLKLTITQEGNKFTVKESSNFRNIDVVFELGVDFAYSLADGTELTGTWTMEGNKLVGKFKRVDNGKELIAVREISGNELIQTYTYEGVEAKRIFKKE
modifications: PEPTIDE (1)...(131) wild-type rat intestinal fatty acid binding protein
On to B4, for which, in test [1], the “ΔR/DRAΔ2 LA” value was determined as 0.9. Further, in test [2], the “ΔR/DRAΔ2 PA” value is given as 0.8. Moreover, in test [3], the “ΔR/DRAΔ2 AA” value is given as 0.8. Besides, the “ΔR/DRAΔ2 LNA” value in test [4] is listed as 1.0. Also, the “ΔR/DRAΔ2 OA” value in test [5] was determined as 0.5.

B5: L1P14A9: FABP probe, substitutions Y14L L72G Y117I vs SEQ ID NO: 2 (protein, listed as Rattus norvegicus)
chain: AFDGTWKVDRNENLEKFMEKMGINVVKRKLGAHDNLKLTITQEGNKFTVKESSNFRNIDVVFELGVDFAYSGADGTELTGTWTMEGNKLVGKFKRVDNGKELIAVREISGNELIQTITYEGVEAKRIFKKE
modifications: PEPTIDE (1)...(131) wild-type rat intestinal fatty acid binding protein
As to B5, the “ΔR/DRAΔ2 LA” value in test [1] is listed as 0.8. Besides, the “ΔR/DRAΔ2 PA” value in test [2] was determined as 0.2. The “ΔR/DRAΔ2 AA” value in test [3] came to 0.8. In test [4], the “ΔR/DRAΔ2 LNA” value worked out at 0.8. In test [5], the “ΔR/DRAΔ2 OA” value was 0.4.

B6: L1P2F7: FABP probe, substitutions Y14I L72G Y117V vs SEQ ID NO: 2 (protein, listed as Rattus norvegicus)
chain: AFDGTWKVDRNENIEKFMEKMGINVVKRKLGAHDNLKLTITQEGNKFTVKESSNFRNIDVVFELGVDFAYSGADGTELTGTWTMEGNKLVGKFKRVDNGKELIAVREISGNELIQTVTYEGVEAKRIFKKE
modifications: PEPTIDE (1)...(131) wild-type rat intestinal fatty acid binding protein
Turning to B6, the “ΔR/DRAΔ2 LA” value in test [1] is 0.6. Further, in test [2], the “ΔR/DRAΔ2 PA” value turned out to be 0.1. The “ΔR/DRAΔ2 AA” value in test [3] worked out at 0.9. In addition, the “ΔR/DRAΔ2 LNA” value in test [4] was found to be 0.5. Also, the “ΔR/DRAΔ2 OA” value in test [5] was found to be 0.3.

B7: L1P3D6: FABP probe, substitution Y14L vs SEQ ID NO: 2 (protein, listed as Rattus norvegicus)
chain: AFDGTWKVDRNENLEKFMEKMGINVVKRKLGAHDNLKLTITQEGNKFTVKESSNFRNIDVVFELGVDFAYSLADGTELTGTWTMEGNKLVGKFKRVDNGKELIAVREISGNELIQTYTYEGVEAKRIFKKE
modifications: PEPTIDE (1)...(131) wild-type rat intestinal fatty acid binding protein
Turning to B7, the “ΔR/DRAΔ2 LA” value in test [1] amounted to 0.8. Moreover, in test [2], the “ΔR/DRAΔ2 PA” value is 0.5. In addition, the “ΔR/DRAΔ2 AA” value in test [3] amounted to 0.9. For the same molecule, the “ΔR/DRAΔ2 LNA” value in test [4] is given as 0.9. In test [5], the “ΔR/DRAΔ2 OA” value is listed as 0.5.

B8: L1P1F7: FABP probe, substitutions Y14L L38M Y117F vs SEQ ID NO: 2 (protein, listed as Rattus norvegicus)
chain: AFDGTWKVDRNENLEKFMEKMGINVVKRKLGAHDNLKMTITQEGNKFTVKESSNFRNIDVVFELGVDFAYSLADGTELTGTWTMEGNKLVGKFKRVDNGKELIAVREISGNELIQTFTYEGVEAKRIFKKE
modifications: PEPTIDE (1)...(131) wild-type rat intestinal fatty acid binding protein
Take B8: in test [1], the “ΔR/DRAΔ2 LA” value amounted to 0.9. In addition, the “ΔR/DRAΔ2 PA” value in test [2] turned out to be 0.5. In addition, the “ΔR/DRAΔ2 AA” value in test [3] is 0.9. In addition, the “ΔR/DRAΔ2 LNA” value in test [4] was 1.0. In addition, the “ΔR/DRAΔ2 OA” value in test [5] is 0.5.

B9: L1P11F12: FABP probe, substitutions Y14L L38I vs SEQ ID NO: 2 (protein, listed as Rattus norvegicus)
chain: AFDGTWKVDRNENLEKFMEKMGINVVKRKLGAHDNLKITITQEGNKFTVKESSNFRNIDVVFELGVDFAYSLADGTELTGTWTMEGNKLVGKFKRVDNGKELIAVREISGNELIQTYTYEGVEAKRIFKKE
modifications: PEPTIDE (1)...(131) wild-type rat intestinal fatty acid binding protein
As for B9, the “ΔR/DRAΔ2 LA” value in test [1] worked out at 1.1. The “ΔR/DRAΔ2 PA” value in test [2] is listed as 0.7. For the same molecule, in test [3], the “ΔR/DRAΔ2 AA” value was 1.0. In test [4], the “ΔR/DRAΔ2 LNA” value was found to be 1.2. Besides, the “ΔR/DRAΔ2 OA” value in test [5] is 0.7.

B10: L1P7B11: FABP probe, substitutions Y14I L38I L72V vs SEQ ID NO: 2 (protein, listed as Rattus norvegicus)
chain: AFDGTWKVDRNENIEKFMEKMGINVVKRKLGAHDNLKITITQEGNKFTVKESSNFRNIDVVFELGVDFAYSVADGTELTGTWTMEGNKLVGKFKRVDNGKELIAVREISGNELIQTYTYEGVEAKRIFKKE
modifications: PEPTIDE (1)...(131) wild-type rat intestinal fatty acid binding protein
For B10, the “ΔR/DRAΔ2 LA” value in test [1] is 0.9. Further, in test [2], the “ΔR/DRAΔ2 PA” value was found to be 0.8. Also, in test [3], the “ΔR/DRAΔ2 AA” value came out at 0.7. Besides, the “ΔR/DRAΔ2 LNA” value in test [4] amounted to 0.9. Besides, the “ΔR/DRAΔ2 OA” value in test [5] turned out to be 0.4.

B11: L1P8D4: FABP probe, substitutions Y14M L72M Y117A vs SEQ ID NO: 2 (protein, listed as Rattus norvegicus)
chain: AFDGTWKVDRNENMEKFMEKMGINVVKRKLGAHDNLKLTITQEGNKFTVKESSNFRNIDVVFELGVDFAYSMADGTELTGTWTMEGNKLVGKFKRVDNGKELIAVREISGNELIQTATYEGVEAKRIFKKE
modifications: PEPTIDE (1)...(131) wild-type rat intestinal fatty acid binding protein
Regarding B11, in test [1], the “ΔR/DRAΔ2 LA” value amounted to 2.0. The “ΔR/DRAΔ2 PA” value in test [2] stood at 0.9. For the same molecule, the “ΔR/DRAΔ2 AA” value in test [3] was 1.6. In test [4], the “ΔR/DRAΔ2 LNA” value came to 2.0. In test [5], the “ΔR/DRAΔ2 OA” value amounted to 1.1.

B12: L1P17A8: FABP probe, substitutions L38M L72G Y117F vs SEQ ID NO: 2 (protein, listed as Rattus norvegicus)
chain: AFDGTWKVDRNENYEKFMEKMGINVVKRKLGAHDNLKMTITQEGNKFTVKESSNFRNIDVVFELGVDFAYSGADGTELTGTWTMEGNKLVGKFKRVDNGKELIAVREISGNELIQTFTYEGVEAKRIFKKE
modifications: PEPTIDE (1)...(131) wild-type rat intestinal fatty acid binding protein
On to B12, for which the “ΔR/DRAΔ2 LA” value in test [1] is listed as 0.8. In addition, the “ΔR/DRAΔ2 PA” value in test [2] was 0.4. For the same molecule, the “ΔR/DRAΔ2 AA” value in test [3] came to 1.3. Further, the “ΔR/DRAΔ2 LNA” value in test [4] was 0.7. Further, in test [5], the “ΔR/DRAΔ2 OA” value is 0.7.

B13: L1P16G10: FABP probe, substitutions Y14W L72M Y117A vs SEQ ID NO: 2 (protein, listed as Rattus norvegicus)
chain: AFDGTWKVDRNENWEKFMEKMGINVVKRKLGAHDNLKLTITQEGNKFTVKESSNFRNIDVVFELGVDFAYSMADGTELTGTWTMEGNKLVGKFKRVDNGKELIAVREISGNELIQTATYEGVEAKRIFKKE
modifications: PEPTIDE (1)...(131) wild-type rat intestinal fatty acid binding protein
Consider B13, for which the “ΔR/DRAΔ2 LA” value in test [1] amounted to 1.1. The “ΔR/DRAΔ2 PA” value in test [2] is on record as 0.8. Moreover, the “ΔR/DRAΔ2 AA” value in test [3] is 0.9. Besides, the “ΔR/DRAΔ2 LNA” value in test [4] was 1.3. Further, the “ΔR/DRAΔ2 OA” value in test [5] was 0.7.

B14: L1P5A10: FABP probe, substitution Y117A vs SEQ ID NO: 2 (protein, listed as Rattus norvegicus)
chain: AFDGTWKVDRNENYEKFMEKMGINVVKRKLGAHDNLKLTITQEGNKFTVKESSNFRNIDVVFELGVDFAYSLADGTELTGTWTMEGNKLVGKFKRVDNGKELIAVREISGNELIQTATYEGVEAKRIFKKE
modifications: PEPTIDE (1)...(131) wild-type rat intestinal fatty acid binding protein
Take B14: the “ΔR/DRAΔ2 LA” value in test [1] was 1.2. The “ΔR/DRAΔ2 PA” value in test [2] came to 0.4. For the same molecule, the “ΔR/DRAΔ2 AA” value in test [3] is on record as 1.5. Besides, the “ΔR/DRAΔ2 LNA” value in test [4] is listed as 0.7. For the same molecule, the “ΔR/DRAΔ2 OA” value in test [5] is 1.1.
